Experimental findings from paper PMC2289905 are described below.

In assay [1] the target is beta 1-LAP deletion mutant L40-50 (simian). Briefly: nonreducing SDS-PAGE with immunoblot.
For assay [2], the target named is radioiodinated mature transforming growth factor beta 1 (UniProt P01137). Briefly: cross-linking.
For assay [3], the target named is beta 1-LAP deletion mutant L50-81 (simian). Briefly: nonreducing SDS-PAGE with immunoblot.
The target of assay [4] is beta 1-LAP deletion mutant L50-85 (simian). Briefly: nonreducing SDS-PAGE with immunoblot.
Assay [5] concerns the target beta 1-LAP deletion mutant L85-110 (simian). Nature of the assay: nonreducing SDS-PAGE with immunoblot.
Assay [6] has as its target mature TGFbeta1 secreted by COS-1 cells transfected with wild-type pre-pro-TGFbeta1 (simian). Nature of the assay: nonreducing SDS-PAGE with immunoblot.

radioiodinated mature transforming growth factor beta 1, sequence (P01137 279-390): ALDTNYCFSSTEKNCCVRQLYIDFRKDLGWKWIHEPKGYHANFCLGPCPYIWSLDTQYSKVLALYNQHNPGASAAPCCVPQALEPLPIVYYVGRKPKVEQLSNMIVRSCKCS
beta 1-latency-associated peptide (pro domain of TGFbeta1 expressed independently), wild type (domain or fragment), sequence (P09533 30-390): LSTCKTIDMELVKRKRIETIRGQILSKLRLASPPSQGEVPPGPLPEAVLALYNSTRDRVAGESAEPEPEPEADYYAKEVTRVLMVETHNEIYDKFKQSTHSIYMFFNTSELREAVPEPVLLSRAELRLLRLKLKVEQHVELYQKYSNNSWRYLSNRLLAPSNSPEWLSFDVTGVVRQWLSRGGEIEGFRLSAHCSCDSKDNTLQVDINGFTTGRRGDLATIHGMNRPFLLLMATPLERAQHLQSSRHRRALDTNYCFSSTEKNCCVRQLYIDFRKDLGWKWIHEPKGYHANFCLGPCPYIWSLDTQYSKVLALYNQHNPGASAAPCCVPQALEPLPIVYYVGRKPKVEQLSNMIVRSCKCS

Substance “beta 1-LAP deletion mutant L40-50 (domain or fragment)” registered a stoichiometry N in assay [1] of 2. The cross-linking (% of wild-type) (% of wild-type) in assay [2] is 10. In turn, “beta 1-LAP deletion mutant L50-81 (domain or fragment)” gave a stoichiometry N in assay [3] of 2. As to “beta 1-LAP deletion mutant L50-85 (domain or fragment)”, the stoichiometry N in assay [4] turned out to be 2.

Substance “beta 1-LAP deletion mutant L85-110 (domain or fragment)” displayed a stoichiometry N in assay [5] of 2. Besides, the cross-linking (% of wild-type) (% of wild-type) in assay [2] came to 12. Substance “beta 1-latency-associated peptide (pro domain of TGFbeta1 expressed independently), wild type (domain or fragment)” displayed a cross-linking (% of wild-type) (% of wild-type) in assay [2] of 100.

In assay [6], “mature TGFbeta1 secreted by COS-1 cells transfected with wild-type pre-pro-TGFbeta1 (ligand)” yielded a stoichiometry N of 2.
